In PMC2745200 (Biochimie, 2009):

Molecular target: the molecule itself
Experiment: SEC

B1: human ω-amidase/Nit2 (nitrilase-like protein 2) (enzyme, UniProt Q9NQR4 1-276, looked up)
chain: MTSFRLALIQLQISSIKSDNVTRACSFIREAATQGAKIVSLPECFNSPYGAKYFPEYAEKIPGESTQKLSEVAKECSIYLIGGSIPEEDAGKLYNTCAVFGPDGTLLAKYRKIHLFDIDVPGKITFQESKTLSPGDSFSTFDTPYCRVGLGICYDMRFAELAQIYAQRGCQLLVYPGAFNLTTGPAHWELLQRSRAVDNQVYVATASPARDDKASYVAWGHSTVVNPWGEVLAKAGTEEAIVYSDIDLKKLAEIRQQIPVFRQKRSDLYAVEMKKP
stoichiometry N: 2
